In doi:10.1101/2022.03.10.483824:

Target: Full length native cardiac myosin II from rabbit heart ventricle (rabbit) (UniProt P04461)
Assay: optical trapping

maximum AM detachment rate (kcat, at saturating ATP): 88.2 s⁻¹
Substance: Biotinylated actin filament (chicken G actin polymerised with biotinylated G actin) (from UniProt P68139 1-377) (natural protein)
